Source: the DeepSol protein solubility set

assay: soluble on expression in E. coli; label from the status in PepcDB or PDB records

Row | Sequence | soluble on expression in E. coli
1 | GPGSMIRRYSLAIGGSCCCPAPRLISTEAFVSSVEKVQHQLGTSERKQDLILHGRQLFENESLDDIHSAWTPVVAGKICHAATQLRISPTKGQPFGAVVGLSLTPEAVGVMDAPSLARIAHSCLILRSPHLYEVLFTYIRRLITLAATLDTVSCAVLINAYGRAQVHHEEFYKVICDRAAVVMKDPRTFVAHTANVAHALSRVRYFHRDLFLTLRDQAERQASQGPPLVAVTILDGFAEIGFVDDALFTALEQRLLGELAELPAPLMASLVSCLAKAGRAPSPLFTACGERIVAIGNTFDSNSIAKTCDAFYRANVPAEEVLGTLAERACKVVADFRPDEINQTLSSLASFDLFDGELFPLLASRFVSIVKQGGYVSPVDAAGILTSFAVVQERSDELVHVCTQLLSVHRDALDGITLLQTLWACVTLNVRNEAQQNLLQCLSSGAVVLPDEASAEKESKVVLERLLFVKKAYGLQ | not soluble
2 | SRLKLFSILSMMLLRPKDTVDSQGQFRGYLDMVINDILAPNLQWHAGRTAAAIRTAAISCLWALISSDILSAKQVQEAQETLMPQVLATLEDDSQTTRLMSCRIINMFLKNSGDTMEPEKFLKVYPELLKRLDDVSNDVRMAAASALLTWLKCIESLDGKSAYQSSVQFLYRELLVHLDDPESAIQDTVLEVLKEGSVLFPDVLVRETEAVVHKHRSATYCEQLLQHMQTMAAAR | soluble
3 | SNASDKGKLSLQDVAELIRARACQRVVVMVGAGISTPSGIPDFRSPGSGLYSNLQQYDLPYPEAIFELPFFFHNPKPFFTLAKELYPGNYKPNVTHYFLRLLHDKGLLLRLYTQNIDGLERVSGIPASKLVEAHGTFASATCTVCQRPFPGEDIRADVMADRVPRCPVCTGVVKPDIVFFGEPLPQRFLLHVVDFPMADLLLILGTSLEVEPFASLTEAVRSSVPRLLINRDLVGPLAWHPRSRDVAQLGDVVHGVESLVELLGWTEEMRDLVQRETGKLDGPDK | soluble
4 | MNATPASADDLIVIGKIYSVHGVRGEVKVYSFTDPIGNLLDYKTWTLRREGSVEKQVELVSGRLQSKFLVVKLKGLDDREEARLLSGYEICVPRNLFPDLDDGEYYWYQLEGLKVIDQLGQLLGKIDHLLETGSNDVMVVKPCAGSLDDRERLLPYTEQCVLAIDMAAGEMKVEWDADFLEHHHHHH | soluble
5 | MGSDKIHHHHHHVESLLTAADLHIHTTASDGTASPEAVLSYVATETDLRVIAITDHDTLRGALYARERASHYGIDVIVGCEISTRSGHLLALFIEQPVPAGLSVTETVARIHDQGGMAFAAHPFGMLVPSIGRRHLLGPERTDVDWMQLDGIEVFNASLWNPMNNERAARCAQRWGLTHIGGSDAHNLTMIGAGRTLFAGTGAADLRRALQRRATLVHGRYWGWRGVAGVVRERVWRQFGRPVESVS | not soluble
6 | SNRLPDDYDPYAVEEPSDEEPALSSSEDEVDVLLHGTPDQKRKLIRECLTGESESSSEDEFEKEMEAELNSTMKTMEDKLSSLGTGSSSGNGKVATAPTRYYDDIYFDSDSEDEDRAVQVTKKKKKKQHKIPTNDELLYDPEKDNRDQAWVDAQRRGYHGLGPQRSREQQPVPNSDAVLNCPACMTTLCLDCQRHESYKTQYRAMFVMNCSINKEEVLRYKASENRKKRRVHKKMRSNQEDAAEKAETDVEEIYHPVMCTECSTEVAVYDKDEVFHFFNVLASHS | soluble
7 | MAKKSTGFDHDPVRVLVAWNPSSHGAEAIECAAWLARTTNVTVQCVTAFLRPWPSSSGNKLGSKYKKWFKKEAFACEDAVKAAFSRAEIPTAMWADTVSVFCDGTNEAALLSEAAHKFGADIVLLGSEAAAPKGRFLAGSTADALLHSSPQPLGLTPRKPKLSKRGVTRVNFAYTGDATDNTSLIRTARLAAAWDVPLRVLALSPEGFGVPPISDTLELPEDLALEWRENTFAVLDRSRDTVHKAHPDVIVETEIGSGNGWSGAIESLKWKKGDLLCFGSTPLGAFERVFIGSQATEILPYVSVPVLMIPATTKVDKKSKK | soluble
8 | MGSDKIHHHHHHALPDPVKPKAPKAVNPFHLGMAGYTFVNFDLDTTLKTLERLDIHYLCIKDFHLPLNSTDEQIRAFHDKCAAHKVTGYAVGPIYMKSEEEIDRAFDYAKRVGVKLIVGVPNYELLPYVDKKVKEYDFHYAIHLHGPDIKTYPDATDVWVHTKDLDPRIGMCLDVGHDLRNGCDPVADLKKYHTRVFDMHIKDVTDSSKAGVGIEIGRGKIDFPALIRMMREVNYTGMCSLEYEKDMKDPFLGIAESIGYFKAVSDLT | not soluble
